What all share (assay): cell-based or functional assay
For experiment [1], the target named is T1, caspase-3 (UniProt P42574 29-277, limits assumed).
T1 sequence (looked up): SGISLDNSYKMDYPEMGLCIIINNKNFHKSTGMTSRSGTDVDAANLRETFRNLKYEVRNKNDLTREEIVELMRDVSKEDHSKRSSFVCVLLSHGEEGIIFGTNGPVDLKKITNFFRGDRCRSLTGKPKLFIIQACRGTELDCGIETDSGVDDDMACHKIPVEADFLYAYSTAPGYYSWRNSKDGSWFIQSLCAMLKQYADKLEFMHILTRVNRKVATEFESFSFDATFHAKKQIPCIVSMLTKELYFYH

Experiment [2] has as its target T2, caspase-6 (UniProt P55212 24-293, limits assumed).
T2 sequence (looked up): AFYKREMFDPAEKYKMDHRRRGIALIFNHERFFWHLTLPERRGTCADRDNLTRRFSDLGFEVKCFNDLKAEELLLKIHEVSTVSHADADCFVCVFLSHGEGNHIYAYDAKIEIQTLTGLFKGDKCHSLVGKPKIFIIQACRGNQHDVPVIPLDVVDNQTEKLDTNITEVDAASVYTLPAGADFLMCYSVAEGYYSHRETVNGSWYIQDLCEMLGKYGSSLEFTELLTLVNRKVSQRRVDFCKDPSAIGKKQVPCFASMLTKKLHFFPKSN

In experiment [3] the target is secreted aspartic proteinase 2 (SAP-2) from Candida albicans (Candida albicans).
Experiment [4] concerns the target plasmepsin 2 (from P. falciparum) (P. falciparum, UniProt P46925 125-453, limits assumed).
Experiment [5] has as its target HIV-1 protease (HIV-1).
In experiment [6] the target is porcine pepsin (porcine, UniProt P00791 60-385).
porcine pepsin, sequence (P00791 60-385 limits assumed): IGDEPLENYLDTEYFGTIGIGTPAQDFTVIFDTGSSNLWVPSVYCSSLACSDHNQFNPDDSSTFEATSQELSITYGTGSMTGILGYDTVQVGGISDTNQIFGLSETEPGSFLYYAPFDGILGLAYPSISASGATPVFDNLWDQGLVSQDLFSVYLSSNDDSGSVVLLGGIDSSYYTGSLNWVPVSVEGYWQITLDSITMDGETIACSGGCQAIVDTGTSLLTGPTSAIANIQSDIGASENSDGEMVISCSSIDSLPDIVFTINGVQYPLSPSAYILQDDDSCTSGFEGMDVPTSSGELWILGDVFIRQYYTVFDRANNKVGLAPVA
The target in experiment [7] is human cathepsin D (human, UniProt P07339 65-412).
human cathepsin D, sequence (P07339 65-412 limits assumed): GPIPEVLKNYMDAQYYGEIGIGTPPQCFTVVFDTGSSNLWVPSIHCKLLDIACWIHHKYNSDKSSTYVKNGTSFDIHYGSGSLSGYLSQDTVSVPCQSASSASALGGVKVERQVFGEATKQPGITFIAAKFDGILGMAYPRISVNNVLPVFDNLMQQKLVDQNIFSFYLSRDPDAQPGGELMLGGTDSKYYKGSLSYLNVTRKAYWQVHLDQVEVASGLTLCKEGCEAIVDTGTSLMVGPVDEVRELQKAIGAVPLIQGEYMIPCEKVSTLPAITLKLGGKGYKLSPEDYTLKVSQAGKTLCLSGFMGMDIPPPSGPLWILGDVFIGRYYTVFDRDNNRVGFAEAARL
For experiment [8], the target named is T3, schistosome legumain SmAE (Schistosoma mansoni asparaginyl endopeptidase) (Schistosoma mansoni, UniProt P09841 32-291).
T3 sequence (looked up): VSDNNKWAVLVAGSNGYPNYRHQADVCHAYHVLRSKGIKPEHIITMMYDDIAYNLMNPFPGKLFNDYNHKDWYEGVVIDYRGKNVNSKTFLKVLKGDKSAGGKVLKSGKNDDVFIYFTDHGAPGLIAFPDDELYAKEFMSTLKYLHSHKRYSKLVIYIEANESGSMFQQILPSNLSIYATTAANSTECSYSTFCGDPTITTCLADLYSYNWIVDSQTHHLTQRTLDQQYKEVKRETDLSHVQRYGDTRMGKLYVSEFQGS

For experiment [9], the target named is T4, autolytically stable caspase-1 variant (D381 E) (UniProt P29466 120-404, limits assumed).
T4 sequence (looked up): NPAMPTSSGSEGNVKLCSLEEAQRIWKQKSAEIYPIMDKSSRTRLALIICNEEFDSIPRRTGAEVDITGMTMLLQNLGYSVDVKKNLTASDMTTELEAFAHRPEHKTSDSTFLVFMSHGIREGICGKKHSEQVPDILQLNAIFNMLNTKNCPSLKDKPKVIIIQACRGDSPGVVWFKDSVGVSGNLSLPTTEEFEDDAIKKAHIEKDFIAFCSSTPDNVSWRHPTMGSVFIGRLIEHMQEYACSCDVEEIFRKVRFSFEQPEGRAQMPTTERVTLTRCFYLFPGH

The values below come from patent US20040048327A1 (GEORGIA TECH RESEARCH, published 2004).

Numbered stars: 1 amine (or outer) side, 2 acyl side, 3 side chain; on linkers, the order of the positions; unused ones are H or OH. Square brackets hold non-standard residues; d marks the D form. * marks the point of attachment. AAsn = aza-asparagine, NC(=O)CN(N[*:1])C(=O)[*:2]; AAsp = aza-Asp, O=C(N(CC(=O)[*:3])N[*:1])[*:2]; azaAsp = O=C(N(CC(=O)[*:3])N[*:1])[*:2]; PhPr = N-terminal cap as named (PhPr); azaAsn = NC(=O)CN(N[*:1])C(=O)[*:2]; (S,S)‑EP = not defined here; trans‑EP = not defined here; Cbz = O=C(OCc1ccccc1)*

plasmepsin 2 (from P. falciparum), sequence (P46925 125-453 limits assumed): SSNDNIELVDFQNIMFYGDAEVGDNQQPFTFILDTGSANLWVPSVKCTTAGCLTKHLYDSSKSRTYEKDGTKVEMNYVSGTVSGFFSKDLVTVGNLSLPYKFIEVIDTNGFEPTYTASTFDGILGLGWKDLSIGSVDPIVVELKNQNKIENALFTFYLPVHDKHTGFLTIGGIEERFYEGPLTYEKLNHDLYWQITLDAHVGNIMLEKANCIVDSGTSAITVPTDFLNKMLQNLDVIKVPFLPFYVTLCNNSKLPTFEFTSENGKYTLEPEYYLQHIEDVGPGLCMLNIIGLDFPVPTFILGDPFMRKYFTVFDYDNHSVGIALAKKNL

B1: Cbz-Ile-Glu-Thr-AAsp-(2S,3S)-EP-CON(CH3)CH2Ph (peptide)
peptide: Cbz-IET[azaAsp]-{(2S,3S)‑EP‑CON(CH3)CH2Ph}
For B1, the k2 came to 4780 M⁻¹ s⁻¹ in [1] and 47700 M⁻¹ s⁻¹ in [2].

B2: Cbz-Ile-Glu-Thr-AAsp-(2S,3S)-EP-CON(CH2Ph)2 (peptide)
peptide: Cbz-IET[azaAsp]-{(2S,3S)‑EP‑CON(CH2Ph)2}
For B2, the k2 in experiment [1] was found to be 3550 M⁻¹ s⁻¹; in [2], 32000 M⁻¹ s⁻¹.

B3: Cbz-Ala-Ala-AAsn-(2S, 3S)-EP-COOEt (peptide)
peptide: Cbz-Ala-Ala-[azaAsn]-{(2S,3S)‑EP‑COOEt}
On to B3, for which the “inhibition of substrate hydrolysis” value in experiment [3], in experiment [4], in [5], in [6] and in experiment [7] was below 20 % inhibition each time. Further, half-maximal inhibition in [8] (IC50) was put at 0.053 µM.

B4: Cbz-Ala-Ala-AAsn-(trans)-EP-CH2CH2Ph (peptide)
peptide: Cbz-Ala-Ala-[AAsn]-{trans‑EP-CH2CH2Ph}
modifications: reading uncertain; also: printed as Cbz-Ala-Ala-AAsn-(trans)-EP-CH2CH2Ph
In experiment [8], B4 showed an IC50 of 0.07 µM.

B5: Cbz-Ala-Ala-AAsn-(trans)-EP-Ph-4-Cl (peptide)
peptide: Cbz-Ala-Ala-[AAsn]-{trans‑EP-Ph‑4‑Cl}
modifications: reading uncertain; also: printed as Cbz-Ala-Ala-AAsn-(trans)-EP-Ph-4-Cl
In turn, B5 gave an IC50 in experiment [8] of 0.09 µM.

B6: Cbz-Ala-Ala-AAsn-(S, S)-EP-COOCH2Ph (peptide)
peptide: Cbz-Ala-Ala-[AAsn]-{(S,S)‑EP-COOCH2Ph}
modifications: reading uncertain; also: printed as Cbz-Ala-Ala-AAsn-(S, S)-EP-COOCH2Ph
B6 came in with an IC50 in experiment [8] of 0.047 µM.

B7: Cbz-Ala-Ala-AAsn-(S, S)-EP-COOCH2CH2Ph (peptide)
peptide: Cbz-Ala-Ala-[AAsn]-{(S,S)‑EP-COOCH2CH2Ph}
modifications: reading uncertain; also: printed as Cbz-Ala-Ala-AAsn-(S, S)-EP-COOCH2CH2Ph
In experiment [8], B7 had an IC50 of 0.045 µM.

B8: Cbz-Ala-Ala-AAsn-(S, S)-EP-CON(nBu)2 (peptide)
peptide: Cbz-Ala-Ala-[AAsn]-{(S,S)‑EP-CON(nBu)2}
modifications: reading uncertain; also: printed as Cbz-Ala-Ala-AAsn-(S, S)-EP-CON(nBu)2
With B8, the half-maximal inhibitory concentration (IC50) in experiment [8] was 0.068 µM.

B9: Cbz-Ala-Ala-AAsn-(S, S)-EP-CON(CH3)CH2Ph (peptide)
peptide: Cbz-Ala-Ala-[AAsn]-{(S,S)‑EP-CON(CH3)CH2Ph}
modifications: reading uncertain; also: printed as Cbz-Ala-Ala-AAsn-(S, S)-EP-CON(CH3)CH2Ph
In experiment [8], B9 showed an IC50 of 0.063 µM. The IC50 values of the last two molecules are within 1.5-fold of each other.

B10: PhPr-Val-Ala-AAsp-(2S,3S)-EP-CON(CH3)CH2Ph (peptide)
peptide: PhPr-Val-Ala-[AAsp]-{(2S,3S)‑EP‑CON(CH3)CH2Ph}
B10: the k2 is 1950 M⁻¹ s⁻¹ in experiment [1] and 136 M⁻¹ s⁻¹ in experiment [2].

B11: PhPr-Val-Ala-AAsp-(2S,3S)-EP-CON(CH2Ph)2 (peptide)
peptide: PhPr-Val-Ala-[AAsp]-{(2S,3S)‑EP‑CON(CH2Ph)2}
In the case of B11, the k2 was determined as 101000 M⁻¹ s⁻¹ in [9], 830 M⁻¹ s⁻¹ in [1] and 145 M⁻¹ s⁻¹ in [2].

B12: PhPr-Val-Ala-AAsp-(2S,3S)-EP-CON(CH2CH2CH2CH3)2 (peptide)
peptide: PhPr-Val-Ala-[AAsp]-{(2S,3S)‑EP‑CON(CH2CH2CH2CH3)2}
Take B12: the k2 in [9] is 26200 M⁻¹ s⁻¹; in experiment [1], 520 M⁻¹ s⁻¹; in experiment [2] it was 53 M⁻¹ s⁻¹.
